How the values were obtained:
[1] = biological target: T1, rhBCMA-Fc Chimera (R&D Systems 193-BC-050) (human, Disulfide-linked homodimer (the 25th table, row 5); one copy of the chain is given.); test: BLI (Octet) scouting; rhBCMA-Fc captured on AHC sensor; analyte 100 nM; 1:1 local fit
T1 construct: Disulfide-linked dimer, bought; also called immobilized BCMA

[2] = biological target: T2, Human CD3ε&CD3δ heterodimeric Fc Chimera (ACRO Biosystems CDD-H52W0) (human, UniProt P07766 22-126, Disulfide-linked heterodimer through the Fc parts that are left off.); test: BLI (Octet) scouting; rhCD3ε/δ-Fc captured on AHC sensor; analyte 2000 nM; 1:1 local fit
T2 construct: Disulfide-linked heterodimer, bought; also called rhCD3ε/δ-Fc; rhCD3ε/CD3δ-Fc

[3] = biological target: T1, rhBCMA-Fc Chimera (R&D Systems …); test: BLI full kinetics; rhBCMA-Fc captured on AHC sensor; analyte 1.56-50 nM; bivalent (avidity)
[4] = biological target: T2, Human CD3ε&CD3δ heterodimeric Fc …; test: BLI full kinetics; rhCD3ε/δ-Fc captured on AHC sensor; analyte 15.6-125 nM; monovalent (affinity)
CD3 on (CD3+) T cells = biological target: T3, CD3 on (CD3+) T cells (human, UniProt P07766 23-207; P09693 23-182; P04234 22-171; P20963 22-164); test: flow cytometry; 10 µg/mL scFv on 50,000 CD3+ T cells; anti-FLAG FITC detection
T3 construct: whole, on cells; also called CD3 protein multi-subunit complex
T3 sequence (P07766 23-207, form in doubt, chain 1 of 4): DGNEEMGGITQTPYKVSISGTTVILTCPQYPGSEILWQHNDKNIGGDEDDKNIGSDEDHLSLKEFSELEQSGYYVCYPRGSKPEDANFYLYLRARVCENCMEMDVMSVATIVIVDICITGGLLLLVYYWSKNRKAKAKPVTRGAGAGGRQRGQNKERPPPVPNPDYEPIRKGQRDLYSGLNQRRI
T3 sequence (P09693 23-182, form in doubt, chain 2 of 4): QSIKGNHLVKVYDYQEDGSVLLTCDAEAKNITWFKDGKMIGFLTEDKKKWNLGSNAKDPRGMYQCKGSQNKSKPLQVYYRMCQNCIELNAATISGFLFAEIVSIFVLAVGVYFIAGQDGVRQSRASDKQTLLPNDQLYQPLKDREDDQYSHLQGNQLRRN
T3 sequence (P04234 22-171, form in doubt, chain 3 of 4): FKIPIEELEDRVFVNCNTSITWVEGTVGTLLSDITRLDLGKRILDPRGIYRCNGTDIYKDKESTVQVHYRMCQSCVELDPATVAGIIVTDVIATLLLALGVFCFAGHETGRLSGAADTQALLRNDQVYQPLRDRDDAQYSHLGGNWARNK
T3 sequence (P20963 22-164, form in doubt, chain 4 of 4): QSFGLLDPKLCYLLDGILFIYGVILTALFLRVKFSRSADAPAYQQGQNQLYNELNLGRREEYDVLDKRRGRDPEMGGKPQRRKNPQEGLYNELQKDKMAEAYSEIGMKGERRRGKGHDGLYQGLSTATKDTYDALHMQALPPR

T2 sequence (P07766 22-126 limits assumed, stated change not applied, chain 1 of 2): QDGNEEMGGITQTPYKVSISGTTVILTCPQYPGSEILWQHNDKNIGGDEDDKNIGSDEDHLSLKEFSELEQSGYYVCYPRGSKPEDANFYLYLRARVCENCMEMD
T2 sequence (delta, as listed by the source mutant limits assumed, chain 2 of 2): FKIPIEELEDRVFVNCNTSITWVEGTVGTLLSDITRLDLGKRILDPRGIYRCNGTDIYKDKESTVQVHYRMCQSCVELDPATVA
T1 sequence (chain, as listed by the source mutant limits assumed): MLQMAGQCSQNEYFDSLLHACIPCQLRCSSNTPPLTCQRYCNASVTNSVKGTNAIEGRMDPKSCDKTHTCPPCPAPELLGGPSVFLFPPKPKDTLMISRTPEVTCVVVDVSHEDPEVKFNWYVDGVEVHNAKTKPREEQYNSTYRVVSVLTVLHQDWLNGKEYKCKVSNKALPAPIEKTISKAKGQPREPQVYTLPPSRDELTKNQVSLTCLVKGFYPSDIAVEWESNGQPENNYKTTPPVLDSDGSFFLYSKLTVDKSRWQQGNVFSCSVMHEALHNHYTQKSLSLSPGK

B1: bispecific antibody of SEQ ID NO: 138 (with a C-terminal Myc-Flag tag of SEQ ID NO: 141) (bispecific antibody)
chain: DIVLTQSPASLAVSPGQRATISCRASESVSFLGINLIHWYQQKPGQPPKLLIYLASNLETGVPARFSGSGSGTDFTLTISSVEPEDTANYYCLQSRTLPRTFGQGTKVEIKGSTSGSGKPGSGEGSTKGQIQLVQSGPELKKPGGSVKISCKASGYTFTSYSINWVRQAPGKGLEWVGWINTETREPAYAQGFTGRFTFSADTSKSMAYLQINSLRAEDTAVYYCALDYLYSLDFWGQGTLVTVSSGGGGSQVQLVQSGAEVKKPGASVKVSCKASGYTFTRYTMHWVRQAPGQGLEWIGYINPSKGYTNYNQKFKGRVTMTADKSTSTAYMELSSLRSEDTAVYYCARYYDDHYSLDYWGQGTLVTVSSGGGGSGGGGSGGGGSGGGGSEIVMTQSPATLSLSPGERVTLSCRASSSVSYMNWYQQKSGTSPKRWIYDTSKVASGVPYRFSGSGSGTDFTLTISSLQAEDEATYYCQQWSSNPLTFGQGTKLEIKSSGGSGGSGGSGGSGGSGGSGGSGGSGGSGSDIVLTQSPASLAVSPGQRATISCRASESVSFLGINLIHWYQQKPGQPPKLLIYLASNLETGVPARFSGSGSGTDFTLTISSVEPEDTANYYCLQSRTLPRTFGQGTKVEIKGSTSGSGKPGSGEGSTKGQIQLVQSGPELKKPGGSVKISCKASGYTFTSYSINWVRQAPGKGLEWVGWINTETREPAYAQGFTGRFTFSADTSKSMAYLQINSLRAEDTAVYYCALDYLYSLDFWGQGTLVTVSSGGSLEQKLISEEDLAANDILDYKDDDDKV
notes: Single chain: anti-BCMA scFv, anti-CD3 scFv, anti-BCMA scFv; also called DC10xP15-MycDDK; DC10xP15
[1]
  Kd: 0.116 nM
[2]
  Kd: 9.76 nM
[3]
  Kd: < 0.001 nM
  koff: < 1e-07 s⁻¹
  kon: 226000 M⁻¹ s⁻¹
[4]
  Kd: 3.02 nM
  koff: 0.00199 s⁻¹
  kon: 660000 M⁻¹ s⁻¹

B2: Vulcanodon-1 anti-CD3 scFv (SEQ ID NO: 2), FLAG and His-tagged version (scFv)
scFv: QVQLVQSGAEVKKPGASVKVSCKASGYTFTRYTMHWVRQAPGQGLEWIGYINPSKGYTNYNQKFKGRVTMTADKSTSTAYMELSSLRSEDTAVYYCARYYDDHYSLDYWGQGTLVTVSSGGGGSGGGGSGGGGSGGGGSEIVMTQSPATLSLSPGERVTLSCRASSSVSYMNWYQQKSGTSPKRWIYDTSKVASGVPYRFSGSGSGTDFTLTISSLQAEDEATYYCQQWSSNPLTFGQGTKLEIK
notes: also called Var 1; not shown: FLAG and His tags
CD3 on (CD3+) T cells
  CD3 Binding (increase in MFI): 20 MFI

B3: Vulcanodon-2 anti-CD3 scFv (SEQ ID NO: 3), FLAG and His-tagged version (scFv)
scFv: QVQLVQSGAEVKKPGASVKVSCKASGYTFTRYTMHWVRQAPGQGLEWIGYINPSRGYTNYNQKFKGRVTMTADKSTSTAYMELSSLRSEDTAVYYCARYYDDHYSLDYWGQGTTVTVSSGGGGSGGGGSGGGGSGGGGSEIVMTQSPATLSLSPGERVTLSCRASSSVSYMNWYQQKSGTSPKRWIYDTSKVASGVPYRFSGSGSGTDFTLTISSLQAEDEATYYCQQWSSNPLTFGAGTKLEIK
notes: also called Var 2; not shown: FLAG and His tags
CD3 on (CD3+) T cells
  CD3 Binding (increase in MFI): 24 MFI

B4: Vulcanodon-4 anti-CD3 scFv (SEQ ID NO: 5), FLAG and His-tagged version (scFv)
scFv: QVQLVQSGAEVKKPGASVKVSCKASGYTFTRYTMHWVKQRPGQGLEWIGYINPSKGYTNYNQKFKGRVTMTADKSTSTAYMELSSLRSEDTAVYYCARYYDDHYSLDYWGQGTLVTVSSGGGGSGGGGSGGGGSGGGGSQIVLTQSPAIMSASPGEKVTMTCRASSSVSYMNWYQQKSGTSPKRWIYDTSKVASGVPYRFSGSGSGTDFTLTISSLQAEDEATYYCQQWSSNPLTFGQGTKLEIK
notes: also called Var 4; not shown: FLAG and His tags
CD3 on (CD3+) T cells
  CD3 Binding (increase in MFI): 27 MFI

B5: Vulcanodon-3 anti-CD3 scFv (SEQ ID NO: 4), FLAG and His-tagged version (scFv)
scFv: QVQLVQSGAEVKKLGASVKVSCKASGYTFTRYTMHWVKQAPGQGLEWIGYINPSRGYTNYNQKFQGRVTMTRDTSISTAYMELSRLRSDDTAVYYCARYYDDHYSLDYWGQGTLVTVSSGGGGSGGGGSGGGGSGGGGSDIQMTQSPSSLSASVGDRVTITCRASSSVSYMNWYQQKSGTSPKRWIYDTSKVASGVPYRFSGSGSGTDFTLTISSLQPEDFATYYCQQWSSNPLTFGAGTKLEIK
notes: also called Var 3; not shown: FLAG and His tags
CD3 on (CD3+) T cells
  CD3 Binding (increase in MFI): 24 MFI

B6: Vulcanodon-C1 anti-CD3 scFv (SEQ ID NO: 7), FLAG and His-tagged version (scFv)
scFv: QVQLQQSGAELARPGASVKMSCKTSGYTFTGYYMHWVKQRPGQGLEWIGYINPSRGYTNYNQKFKDKATLTTDKSSSTAYMQLSSLTSEDSAVYYCARYYDDHYSLDYWGQGTTLTVSSGGGGSGGGGSGGGGSGGGGSQIVLTQSPAIMSASPGEKVTMTCRASQSISSYLNWYQQKSGTSPKRWIYDTSKVASGVPYRFSGSGSGTSYSLTISSMEAEDAATYYCQQWSSNPLTFGAGTKLELK
notes: also called Var CDR1; not shown: FLAG and His tags
CD3 on (CD3+) T cells
  CD3 Binding (increase in MFI): ~0 MFI

B7: Vulcanodon-C2 anti-CD3 scFv (SEQ ID NO: 8), FLAG and His-tagged version (scFv)
scFv: QVQLQQSGAELARPGASVKMSCKTSGYTFTRYTMHWVKQRPGQGLEWMGIINPSGGSTSYAQKFKDKATLTTDKSSSTAYMQLSSLTSEDSAVYYCARYYDDHYSLDYWGQGTTLTVSSGGGGSGGGGSGGGGSGGGGSQIVLTQSPAIMSASPGEKVTMTCRASSSVSYMNWYQQKSGQAPRLLIYGASTRATGIPYRFSGSGSGTSYSLTISSMEAEDAATYYCQQWSSNPLTFGAGTKLELK
notes: also called Var CDR2; not shown: FLAG and His tags
CD3 on (CD3+) T cells
  CD3 Binding (increase in MFI): ~0 MFI

— US20240344030A1 (CARTESIAN THERAPEUTICS, published 2024)
